Source: patent US20140121131A1 (AFFINITY BIOSCIENCES, published 2014)

Columns and labels:
biotinylated His6-GFP [1] = target: T1, biotinylated His6-GFP (UniProt P42212 1-238 = GFP); test: phage capture on streptavidin Dynal beads labelled with biotinylated His6-GFP; fusion protein not induced; reference is Hy5 phage with wild-type gpL
T1 construct: Held on streptavidin magnetic particles or Dynal beads; also called biotinylated eGFP; Biotin-labeled eGFP; not shown: His6 tag

biotinylated His6-GFP [2] = target: T1, biotinylated His6-GFP; test: phage capture on streptavidin Dynal beads labelled with biotinylated His6-GFP; fusion protein induced with arabinose; reference is Hy5 phage with wild-type gpL

B1: αGFP::I27::gpL fusion protein (VHH)
chain: MGDGMQVQLVESGGALVQPGGSLRLSCAASGFPVNRYSMRWYRQAPGKEREWVAGMSSAGDRSSYEDSVKGRFTISRDDARNTVYLQMNSLKPEDTAVYYSNVNVGFEYWGQGTQVTVSSNSSSQTSLIEVEKPLYGVEVFVGETAHFEIELSEPDVHGQWKLKGQPLTASPDCEIIEDGKKHILILHNCQLGMTGEVSFQAANAKSAANLKVKELNSSSDYKDDDDKGNGTLIIPRKEAPVSGEGTVVIPQPAGDEPVIKNTFFFPDIDPKRVRERMRLEQTVAPARLREAIKSGMAETNAELYEYREQKIAAGFTRLADVPADDIDGESIKVFYYERAVCAMATASLYERYRGVDASAKGDKKADSIDSTIDELWRDMRWAVARIQGKPRCIVSQI
notes: also called Hy5 + αGFP:I27:gpL; gpL capsid fusion protein
Enrichment (fold over Hy5) (biotinylated His6-GFP [1]): 6.5 fold over Hy5 | Enrichment (fold over Hy5) (biotinylated His6-GFP [2]): 82 fold over Hy5
